Data as given in paper PMC11452665.

Target: mink ryanodine receptor type 3 (RyR3) (mink)
Assay: cryo-EM structure

stoichiometry N: 4
Substance: mink ryanodine receptor type 3 (RyR3) (natural protein)
